According to patent US20050260565A1 (ICOS, published 2005):

Tests used:
FLAG-tagged 88C receptor [1] = target: T1, FLAG-tagged 88C receptor (human, UniProt P51681 1-352); assay: competition of the unlabeled ligand with 1.5 nM 125I-MIP-1β on HEK-293 cells expressing FLAG-tagged 88C
T1 sequence: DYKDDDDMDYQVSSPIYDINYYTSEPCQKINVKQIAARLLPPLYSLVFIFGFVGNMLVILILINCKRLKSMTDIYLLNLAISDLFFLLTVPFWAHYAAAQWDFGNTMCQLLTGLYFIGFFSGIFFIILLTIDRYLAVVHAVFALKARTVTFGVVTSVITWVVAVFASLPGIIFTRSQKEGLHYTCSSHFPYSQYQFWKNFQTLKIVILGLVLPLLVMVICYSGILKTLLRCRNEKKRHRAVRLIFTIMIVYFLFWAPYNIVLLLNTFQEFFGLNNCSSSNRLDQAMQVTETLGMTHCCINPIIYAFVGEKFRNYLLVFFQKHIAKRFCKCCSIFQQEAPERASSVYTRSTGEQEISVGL
From the text: (§1) Another assay for receptor interaction with chemokines was a modification of the binding assay described by Ernst et al., J. Immunol. 152:3541-3549 (1994). MIP-1β as labeled using the Bolton and Hunter reagent (di-iodide, NEN, Wilmington, Del.), according to the manufacturer's instructions. Unconjugated iodide was separated from labeled protein by elution using a PD-10 column (Pharmacia) equilibrated with PBS and BSA (1% w/v). The specific activity was typically 2200 Ci/mmole. Equilibrium binding was performed by adding ¹²⁵I-labeled ligand with or without a 100-fold excess of unlabeled ligand, to 5×10⁵ HEK-293 cells transfected with 88C tagged with the FLAG epitope in polypropylene tubes in a total volume of 300 μl (50 mM HEPES pH 7.4, 1 mM CaCl₂, MgCl₂, 0.5% BSA) and incubating for 90 minutes at 27° C. with shaking at 150 rpm. The cells were collected, using a Skatron cell harvester (Skatron Instruments Inc., Sterling, Va.), on glass fiber filters presoaked in 0.3% polyethyleneimine and 0.2% BSA. After washing, the filters were removed and bound ligand was quantitated by counting gamma emissions. Ligand binding by competition with unlabeled ligand was determined by incubation of 5×10⁵ transfected cells (as above) with 1.5 nM of radiolabeled ligand and the indicated concentrations of unlabeled ligand. The samples were collected, washed and counted as above. The data was analyzed using the curve-fitting program Prism (GraphPad Inc., San Diego, Calif.) and the iterative non-linear regression program, LIGAND (PM220).
In equilibrium binding assays, 88C receptor bound radiolabeled MIP-1β in a specific and saturable manner.

FLAG-tagged 88C receptor [2] = target: T1, FLAG-tagged 88C receptor; assay: equilibrium binding of 125I-MIP-1β to HEK-293 cells expressing FLAG-tagged 88C, Scatchard analysis
From the text: as §1, with “The cells were collected, using a Skatron cell harvester (Skatron Instruments Inc., Sterling, Va.), on glass fiber filters presoaked in 0.3% polyethyleneimine and 0.2% BSA.” left out, “(PM220). […]” for “(PM220).”

FLAG-tagged 88C receptor [3] = target: T1, FLAG-tagged 88C receptor; assay: cell-based or functional assay

B1: MIP-1β (ligand, UniProt P13236 24-92, looked up)
chain: APMGSDPPTACCFSYTARKLPRNFVVDYYETSSLCSQPAVVFQTKRSKQVCADPSESWVQEYVYDLELN
modifications: ends and bridges not checked; also: 125I label (Bolton and Hunter reagent) where used as radiolabeled ligand
For B1, the IC50 (FLAG-tagged 88C receptor [1]) was 7.4 nM, the Kd (FLAG-tagged 88C receptor [2]) was 1.6 nM and the “EC50 of inositol phosphate formation (dose-response curves)” value (from here on “EC50 of inositol phosphate formation”) (FLAG-tagged 88C receptor [3]) was 6 nM.

B2: MIP-1α (ligand, UniProt P10147 24-92, looked up)
chain: SLAADTPTACCFSYTSRQIPQNFIADYFETSSQCSKPGVIFLTKRSRQVCADPSEEWVQKYVSDLELSA
B2 was tested, and the IC50 (FLAG-tagged 88C receptor [1]) was 7.4 nM and the “EC50 of inositol phosphate formation” value (FLAG-tagged 88C receptor [3]) was 22 nM.

B3: RANTES (Regulated on Activation, Normal T Expressed and Secreted) (ligand, UniProt P13501 24-91, looked up)
chain: SPYSSDTTPCCFAYIARPLPRAHIKEYFYTSGKCSNPAVVFVTRKNRQVCANPEKKWVREYINSLEMS
For B3, the IC50 (FLAG-tagged 88C receptor [1]) was 6.9 nM and the “EC50 of inositol phosphate formation” value (FLAG-tagged 88C receptor [3]) was 1 nM.
